{
  "source": "patent US20070258992A1",
  "target": "mouse synaptosomes",
  "assay": "inhibition of active BoNT/A binding to synaptosomes",
  "data": [
    {"substance": "inactive BoNT/A (formaldehyde-inactivated toxoid) (from UniProt P0DPI0 2-1296)", "values": [
      {"measurement": "maximum inhibition", "value": 98, "unit": "%"}
    ]}
  ]
}
